{"source": "patent US20260234223A1", "about": "(LEYDEN LABORATORIES B V, published 2026)", "biological_target": "SARS-CoV-2 Omicron BA.4 Spike (on pseudovirions) (SARS-CoV-2 Omicron BA.4)", "test": "cell-based or functional assay"}
{"binder": "COV30-14 (antibody, V domains shown, also called the antibody according to the invention; the antibody according to invention) VH: QVQLVQSGAEVKKPGASVKVSCQTSGYTFTSYYMHWVRQAPGQGLEWMGLITPSGDDTYYAQRFQGRVTMTRDTSTSPTYMELSSLTSEDTAVYYCAKMSRAGGFDVWGQGTLVTVSS VL: EVVLTQSPGTLSLSPGERATLSCRASQSITGRYLAWYQQKPGQAPRLLMYGESSRVTGIPDRFSGGGSGTDFTLTISRLEPEDFAVYYCQHFASSPPTYTFGQGTKLEIR", "values": [{"measurement": "Pseudovirion neutralization IC50 (geometric mean)", "value": 7.6, "unit": "µg/mL"}]}
